Test results reported in publication PMC8837617 (2022).
No end group written: not given here. *: point of attachment. 5FAM = O=C1OC2(c3ccc(O)cc3Oc3cc(O)ccc32)c2ccc(C(=O)*)cc21

Biological target: MAPK ERK2 (human, UniProt P28482 1-360)
Assay: FP

Chain of MAPK ERK2 (P28482 whole entry): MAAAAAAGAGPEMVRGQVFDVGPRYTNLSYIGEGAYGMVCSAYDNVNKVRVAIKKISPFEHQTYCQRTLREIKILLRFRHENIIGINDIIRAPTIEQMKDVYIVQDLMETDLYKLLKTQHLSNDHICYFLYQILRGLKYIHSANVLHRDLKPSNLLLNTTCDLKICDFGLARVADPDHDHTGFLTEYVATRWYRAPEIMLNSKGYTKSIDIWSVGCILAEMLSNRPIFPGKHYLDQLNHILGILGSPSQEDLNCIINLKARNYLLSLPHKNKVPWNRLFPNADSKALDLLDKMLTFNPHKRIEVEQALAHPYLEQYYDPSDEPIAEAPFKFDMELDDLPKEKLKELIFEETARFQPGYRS

Kd: 23.9 µM
Binder: 5FAM-RLQERRGSNVALMLDV [fluorescent reporter peptide fl-HePTP]
